What is called koff is the first-order rate constant of dissociation. The term kon denotes a measure of how fast the partners come together.

Assay [1] concerns the target T1, Purified recombinant human CD26 (rhDipeptidyl peptidase IV), R&D Systems CAT# 1180-SE (human, UniProt P27487 29-766).
T1 construct: also called hu-CD26; soluble human CD26
The assay can be described thus: SPR (Biacore), IgG1 over CD26. How it is done: Fabs produced in E. coli as described below were diluted in PBS in a concentration of ˜0.5 μM for the assay. A typical recording included a 3 minute period of injection of the Fab followed by a period of 15 minutes of dissociation, and analysis was performed based on the raw data of the binding curves accordingly.
Analyses thereof were performed using Biacore® as described in Example 1, excepting the binding partners were the rhuMAbs noted above.
On the technique in general: In SPR one partner is held on a chip, and binding of the other changes the refractive index at the surface.

Assay [2] concerns the target peptide 69 (human). The assay can be described thus: peptide microarray.
The target of assay [3] is peptide 121 (human). The assay is described as follows: peptide microarray.
The target of assay [4] is peptide 16 (human). The assay is described as follows: peptide microarray.
Assay [5] has as its target peptide 125 (human). The assay is described as follows: peptide microarray.
Assay [6] has as its target peptide 13 (human). The assay can be described thus: peptide microarray.

T1 sequence (P27487 29-766 limits assumed): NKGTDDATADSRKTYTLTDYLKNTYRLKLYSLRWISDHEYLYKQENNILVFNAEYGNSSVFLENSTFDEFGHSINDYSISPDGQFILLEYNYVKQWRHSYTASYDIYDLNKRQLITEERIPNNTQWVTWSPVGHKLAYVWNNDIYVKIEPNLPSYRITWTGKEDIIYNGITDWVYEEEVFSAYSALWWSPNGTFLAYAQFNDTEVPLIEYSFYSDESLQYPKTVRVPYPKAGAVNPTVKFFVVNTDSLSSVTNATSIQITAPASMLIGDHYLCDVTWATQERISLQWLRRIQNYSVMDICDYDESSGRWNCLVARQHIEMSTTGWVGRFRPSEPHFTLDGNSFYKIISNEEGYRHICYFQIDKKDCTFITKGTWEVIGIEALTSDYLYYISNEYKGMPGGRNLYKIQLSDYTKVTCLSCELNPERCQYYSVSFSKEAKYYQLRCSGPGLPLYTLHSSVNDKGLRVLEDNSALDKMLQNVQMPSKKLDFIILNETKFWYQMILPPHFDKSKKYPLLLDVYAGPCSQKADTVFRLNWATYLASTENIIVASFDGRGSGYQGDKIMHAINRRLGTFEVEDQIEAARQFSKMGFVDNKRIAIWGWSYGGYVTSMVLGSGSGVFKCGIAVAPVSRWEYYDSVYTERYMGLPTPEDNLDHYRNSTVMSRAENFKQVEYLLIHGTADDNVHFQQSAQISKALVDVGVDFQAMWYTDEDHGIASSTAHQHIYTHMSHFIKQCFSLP

B1: rhuMAb 411 (antibody, human IgG1, kappa, V domains shown)
VH: EVQLVESGAGVKQPGGTLRLTCTASGFSLTTYGVHWVRQAPGKGLEWVGVIWGDGRTDYDAAFMSRVTISKDTSKSTVYLQMNSLRAEDTAVYYCMRNRHDWFDYWGQGTTVTVSS
VL: DILLTQSPSSLSATPGERATITCRASQGIRNNLNWYQQKPGQAPRLLIYYSSNLQSGVPSRFSGSGSGTDFTLTISRLQPEDVAAYYCQQSIKLPFTFGSGTKVEIKR
notes: also called X411
As to B1, in assay [1], the off-rate constant (koff) was 0.000108 s⁻¹. Besides, in assay [1], the kon was found to be 485000 M⁻¹ s⁻¹. Further, the Mean Signal Value in assay [2] came out at 2.45; in assay [3], 2.08; in assay [4], 1.92; in assay [5], 1.8; in assay [6], 1.94.

(Values after patent US20090136523A1 (published 2009).)
